Source: patent US20210355194A1 (TWIST BIOSCIENCE, published 2021)
Like-named read-outs stand apart in the source and are kept apart here.

What was measured:
[1] = target: T1, COVID S1 RBM Fc fusion (Antigen 2) (SARS-CoV-2, UniProt P0DTC2 437-508); assay: phage ELISA
S1 Fc fusion protein [2] = target: T2, S1 Fc fusion protein (SARS-CoV-2, UniProt P0DTC2 14-685); assay: phage ELISA
[3] = target: T3, COVID S1 RBD Fc fusion (Antigen 1) (SARS-CoV-2, UniProt P0DTC2 319-541); assay: phage ELISA
[4] = target: T1, COVID S1 RBM Fc fusion (Antigen 2); assay: phage ELISA; remark: listed apart in the source
S1 Fc fusion protein [5] = target: T2, S1 Fc fusion protein; assay: phage ELISA; remark: listed apart in the source
[6] = target: T3, COVID S1 RBD Fc fusion (Antigen 1); assay: phage ELISA; remark: listed apart in the source
[7] = target: T4, SARS-CoV-2 spike on live SARS-CoV-2 virus (SARS-CoV-2, UniProt P0DTC2 14-1273); assay: cell-based or functional assay
[8] = target: T4, SARS-CoV-2 spike on live SARS-CoV-2 …; assay: cell-based or functional assay; remark: listed apart in the source
[9] = target: T4, SARS-CoV-2 spike on live SARS-CoV-2 …; assay: cell-based or functional assay; remark: listed apart in the source
[10] = target: SARS-CoV-2 spike on VSV-pseudotype SARS-CoV-2 (SARS-CoV-2, UniProt P0DTC2 14-1273); assay: cell-based or functional assay
[11] = target: T5, COVID S1 RBM Fc fusion (Antigen 2) (SARS-CoV-2, UniProt P0DTC2 437-508); assay: phage ELISA
T5 construct: domain: RBM

S1 Fc fusion protein [12] = target: T6, S1 Fc fusion protein (SARS-CoV-2, UniProt P0DTC2 14-685); assay: phage ELISA
T6 construct: domain: S1

[13] = target: T7, COVID S1 RBD Fc fusion (Antigen 1) (SARS-CoV-2, UniProt P0DTC2 319-541); assay: phage ELISA; remark: listed apart in the source
[14] = target: T5, COVID S1 RBM Fc fusion (Antigen 2); assay: phage ELISA; remark: listed apart in the source
S1 Fc fusion protein [15] = target: T6, S1 Fc fusion protein; assay: phage ELISA; remark: listed apart in the source
[16] = target: T7, COVID S1 RBD Fc fusion (Antigen 1); assay: phage ELISA; remark: listed apart in the source
[17] = target: T8, SARS-CoV-2 S1 (antigen of the Carterra SPR kinetics) (SARS-CoV-2, UniProt P0DTC2 16-685); assay: Carterra SPR
[18] = target: T8, SARS-CoV-2 S1 (antigen of the Carterra …); assay: Carterra SPR; remark: listed apart in the source

| Binder | ELISA fold over background [1] [fold] | ELISA fold over background (S1 Fc fusion protein [2]) [fold] | ELISA fold over background [3] [fold] | ELISA fold over background [4] [fold] | ELISA fold over background (S1 Fc fusion protein [5]) [fold] | ELISA fold over background [6] [fold] | further results |
| --- | --- | --- | --- | --- | --- | --- | --- |
| SARS-CoV-2 variant 1-27 (antibody, V domains shown) VH: EVQLLESGGGLVQPGGSLRLSCAASGFTFSSYAMTWVRQAPGKGLEWVSAISGSGGGTYYADSVKGRFTISRDNSKNTLYLQMNSLRAEDTAVYYCASSSSWQFDYWGQGTLVTVSS VL: QSALTQPASVSGSPGQSITISCTGTSSYVGHYNLVSWYQQHPGKAPKLMIYEGSRRPSGVSNRFSGSKSGNTASLTISGLQAEDEADYYCCSYAGSYTHYVFGGGTKLTVL | 1.6 | 1.3 | 1.9 | 1.6 | 1.3 | 1.9 |  |
| SARS-CoV-2 variant 1-36 (antibody, V domains shown) VH: EVQLLESGGGLVQPGGSLRLSCAASGLTFSSYAMSWVRQAPGKGLEWVSDISGSGGSTYYADSVKGRFTISRDNSKNTLYLQMNSLRAEDTAVYYCVKGTIPIFGVIRSAFDYWGQGTLVTVSS VL: QSALTQPASVSGSPGQSITISCTGTSSDVGSYSLVSWYQQHPGKAPKLMIYEGDKRPSGVSNRFSGSKSGNTASLTISGLQAEDEADYYCCSYAGSYSYVVFGGGTKLTVL | 0.8 | 1.1 | 1.2 | 0.8 | 1.1 | 1.2 |  |
| SARS-CoV-2 variant 1-10 (antibody, V domains shown) VH: EVQLLESGGGLVQPGGSLRLSCAASGFTFSSYDMSWVRQAPGKGLEWVSVISGSGGSTYYADSVKGRFTISRDNSKNTLYLQMNSLRAEDTAVYYCAKGPLVGWYFDLWGQGTLVTVSS VL: QSALTQPASVSGSPGQSITISCTGTSSNVGSYNLVSWYQQHPGKAPKLMIYEGTKRPSGVSNRFSGSKSGNTASLTISGLQAEDEADYYCCSYAGSSSFVVFGGGTKLTVL | 1.1 | 1.3 | 17.4 | 1.1 | 1.3 | 17.4 |  |
| SARS-CoV-2 variant 1-35 (antibody, V domains shown) VH: EVQLLESGGGLVQPGGSLRLSCAASGFTFSNYAMSWVRQAPGKGLEWVSDISGSGGSTYYADSVKGRFTISRDNSKNTLYLQMNSLRAEDTAVYYCVKGTIPIFGVIRSAFDYWGQGTLVTVSS VL: QSALTQPASVSGSPGQSITISCTGTSSDVGSYSLVSWYQQHPGKAPKLMIYEGTKRPSGVSNRFSGSKSGNTASLTISGLQAEDEADYYCCSYAGSYSYVVFGGGTKLTVL | 1.6 | 1.4 | 1.8 | 1.6 | 1.4 | 1.8 |  |
| SARS-CoV-2 variant 1-7 (antibody, V domains shown) VH: EVQLLESGGGLVQPGGSLRLSCAASGFTFSSYDMSWVRQAPGKGLEWVSVISGSGGSTYYADSVKGRFTISRDNSKNTLYLQMNSLRAEDTAVYYCAKGPLVGWYFDLWGQGTLVTVSS VL: QSALTQPASVSGSPGQSITISCTGTSSDFGSYNLVSWYQQHPGKAPKLMIYEGNKRPSGVSNRFSGSKSGNTASLTISGLQAEDEADYYCCSYAGSSTFVVFGGGTKLTVL | 1.6 | 1.7 | 3.3 | 1.6 | 1.7 | 3.3 |  |
| SARS-CoV-2 variant 1-48 (antibody, V domains shown) VH: EVQLLESGGGLVQPGGSLRLSCAASGFTFSSHAMYWVRQAPGKGLEWVSAISGSAGSTYYADSVKGRFTISRDNSKNTLYLQMNSLRAEDTAVYYCAHDTKDFWSGYCIFDPWGQGTLVTVSS VL: QSALTQPASVSGSPGQSITISCTGTSSDIGSYNLVSWYQQHPGKAPKLMIYEGTKRPSGVSNRFSGSKSGNTASLTISGLQAEDEADYYCCSYAGSRTYVFGGGTKLTVL | 0.8 | 0.8 | 2.1 | 0.8 | 0.8 | 2.1 |  |
| variant 5-34 (Fc fusion) VHH: EVQLVESGGGLVQPGGSLRLSCAASGRTFSRYIMGWFRQAPGKEREFVAAISWSGGDNTYYADSVKGRFTISADNSKNTAYLQMNSLKPEDTAVYYCAAYRIVVGGTSPGDWRWGQGTLVTVSS |  |  |  |  |  |  | PRNT90 [7]: 15.6 ng/mL; EC80 [8]: 0.57 µg/mL; EC50 [9]: 0.54 µg/mL; NC50 [10]: 0.54 µg/mL |
| variant 5-20 (Fc fusion) VHH: EVQLVESGGGLVQPGGSLRLSCAASGRTIVPYTMGWFRQAPGKERELVAAISPSAFTEYADSVKGRFTISADNSKNTAYLQMNSLKPEDTAVYYCAARRWGYDWGQGTLVTVSS |  |  |  |  |  |  | PRNT90 [7]: 3.9 ng/mL; EC80 [8]: 0.376 µg/mL; EC50 [9]: 0.27 µg/mL; NC50 [10]: 0.27 µg/mL |
| SARS-CoV-2 variant 1-25 (antibody, V domains shown) VH: EVQLLESGGGLVQPGGSLRLSCAASGFTFSDYAMNWVRQAPGKGLEWVSIISGSGGSTYYADSVKGRFTISRDNSKNTLYLQMNSLRAEDTAVYYCAREGYRDYLWYFDLWGQGTLVTVSS VL: QSALTQPASVSGSPGQSITISCSGTSSDVGSYNLVSWYQQHPGKAPKLMIYEASKRPSGVSNRFSGSKSGNTASLTISGLQAEDEADYYCCSYAGSSTVFGGGTKLTVL | 0.8 | 1 | 2.7 | 0.8 | 1 | 2.7 |  |
| SARS-CoV-2 variant 1-24 (antibody, V domains shown) VH: EVQLLESGGGLVQPGGSLRLSCAASGFTFSSYAMNWVRQAPGKGLEWVSIISGSGGSTYYADSVKGRFTISRDNSKNTLYLQMNSLRAEDTAVYYCAREGYRDYLWYFDLWGQGTLVTVSS VL: QSALTQPASVSGSPGQSITISCTGTSSDVGYYNLVSWYQQHPGKAPKLMIYEGNKRPSGVSNRFSGSKSGNTASLTISGLQAEDEADYYCCSYAGGSVVFGGGTKLTVL | 1.3 | 1.1 | 11 | 1.3 | 1.1 | 11 |  |
| SARS-CoV-2 variant 1-23 (antibody, V domains shown) VH: EVQLLESGGGLVQPGGSLRLSCAASGFTFSSYAISWVRQAPGKGLEWVSIISGSGGSTYYADSVKGRFTISRDNSKNTLYLQMNSLRAEDTAVYYCAREGYRDYLWYFDLWGQGTLVTVSS VL: QSALTQPASVSGSPGQSITISCTGTSNDVGSYNLVSWYQQHPGKAPKLMIYEGNKRPSGVSNRFSGSKSGNTASLTISGLQAEDEADYYCCSYAGSYTVFGGGTKLTVL | 1.6 | 1.6 | 3.6 | 1.6 | 1.6 | 3.6 |  |
| SARS-CoV-2 S1 variant 2-5 (antibody, V domains shown) VH: EVQLLESGGGLVQPGGSLRLSCAASGFTFSDFAMAWVRQAPGKGLEWVSAISGSGDITYYADSVKGRFTISRDNSKNTLYLQMNSLRAEDTAVYYCAREADGLHSPWHFDLWGQGTLVTVSS VL: DIQMTQSPSSLSASVGDRVTITCRASQSIHTYLNWYQQKPGKAPKLLIYAASALASGVPSRFSGSGSGTDFTLTISSLQPEDFATYYCQQSYSAPPYTFGQGTKVEIK |  |  |  |  |  |  | ELISA fold over background [11]: 1.1 fold; ELISA fold over background (S1 Fc fusion protein [12]): 24.3 fold; ELISA fold over background [13]: 35.9 fold; ELISA fold over background [14]: 1.1 fold; ELISA fold over background (S1 Fc fusion protein [15]): 24.3 fold; ELISA fold over background [16]: 35.9 fold; koff [17]: 0.000259 s⁻¹; kon [17]: 93900 M⁻¹ s⁻¹; Kd [18]: 2.8 nM; koff [18]: 0.000259 s⁻¹; kon [18]: 93900 M⁻¹ s⁻¹ |
